# In patent US20050215629:
# System: synthetic phosphotyrosine peptide Arg-Arg-Leu-Ile-Glu-Asp-Ala-Glu-Tyr-Ala-Ala-Arg-Gly, wherein the tyrosine is phosphorylated
Substance,"PTPase activity (malachite green, absorbance at 660 nm)",in vitro PTPase assay
GST fusion protein of SHP-1,660 nm absorbance approximately 0.6 above background (0.03),–
GST fusion protein of SHP-1 catalytic domain (SHP-1cata),–,the two proteins in their dephosphorylation of the phosphotyrosine peptide substrate in vitro
GST fusion protein of SHP-2,660 nm absorbance approximately 0.6 above background (0.03),–
GST fusion protein of mitogen-activated protein kinase phosphatase 1 (MKP1),660 nm absorbance approximately 0.6 above background (0.03),–
GST fusion protein of protein tyrosine phosphatase 1B (PTP1B),660 nm absorbance approximately 0.6 above background (0.03),–
